Consider one molecule from patent US20230365709A1.

The assay deals with recombinant human CD16A (48R/158F) expressed on the surface of CHO cells (human) (UniProt P08637). The assay is described as follows: flow cytometry, CHO-huCD16A cells, apparent KD; SD 62.5. (In general: A flow cytometer gives signals particle by particle.)

B1: 2scDb-AFc-3 (protein)
chain 1: EVQLQQSGPELVKPGASVKMSCKASGYTFTDYVINWGKQRSGQGLEWIGEIYPGSGTNYYNEKFKAKATLTADKSSNIAYMQLSSLTSEDSAVYFCARRGRYGLYAMDYWGQGTSVTVSSGGSGGSGGSDIVMTQSPATLSLSPGERATLSCRSSKSLQNVNGNTYLYWFQQKPGQSPQLLIYRMSNLNSGVPDRFSGSGSGTEFTLTISSLEPEDFAVYYCMQHLEYPITFGAGTKLEIKGGSGGSGGSGGSGGSGGSGGSEVQLVESGGGLVKPGGSLKLSCAASGYTFTSYVMHWVRQAPGKGLEWIGYINPYNDGTKYNEKFQGRVTISSDKSISTAYMELSSLRSEDTAMYYCARGTYYYGTRVFDYWGQGTLVTVSSGGSGGSGGSDIQMTQTTSSLSASLGDRVTISCRASQDISNYLNWYQQKPDGTVKLLIYYTSRLHSGVPSRFSGSGSGTDYSLTINNLEQEDIATYFCQQGNTRPWTFGGGTKLEIKDKTHTCPPCPAPEFEGGPSVFLFPPKPKDTLMISRTPEVTCVVVAVSHEDPEVKFNWYVDGVEVHNAKTKPREEQYGSTYRVVSVLTVLHQDWLNGKEYKCKVSNKALPAPIEKTISKAKGQPREPQVYTLPPSREEMTKNQVSLWCLVKGFYPSDIAVEWESNGQPENNYKTTPPVLDSDGSFFLYSKLTVDKSRWQQGNVFSCSVMHEALHNHYTQKSLSLSPG
chain 2: EVQLVQSGAEVKKPGASVKVSCKASGYTFTNYYMQWVRQAPGQCLEWMGIINPSGGVTSYAQKFQGRVTMTRDTSTSTVYMELSSLRSEDTAVYYCARGSAYYYDFADYWGQGTLVTVSSGGSGGSGGSDIVMTQSPATLSLSPGERATLSCRSSKSLQNVNGNTYLYWFQQKPGQSPQLLIYRMSNLNSGVPDRFSGSGSGTEFTLTISSLEPEDFAVYYCMQHLEYPITFGAGTKLEIKGGSGGSGGSGGSGGSGGSGGSEVQLVESGGGLVKPGGSLKLSCAASGYTFTSYVMHWVRQAPGKGLEWIGYINPYNDGTKYNEKFQGRVTISSDKSISTAYMELSSLRSEDTAMYYCARGTYYYGTRVFDYWGQGTLVTVSSGGSGGSGGSSYELTQPLSVSVALGQTARITCGGNNIGSKSVHWYQQKPGQAPVLVIYQDKKRPSGIPERFSGSNSGNTATLTISRAQAGDEADYYCQVWDDYIVLFGCGTKLTVLDKTHTCPPCPAPEFEGGPSVFLFPPKPKDTLMISRTPEVTCVVVAVSHEDPEVKFNWYVDGVEVHNAKTKPREEQYGSTYRVVSVLTVLHQDWLNGKEYKCKVSNKALPAPIEKTISKAKGQPREPQVYTLPPSREEMTKNQVSLSCAVKGFYPSDIAVEWESNGQPENNYKTTPPVLDSDGSFFLVSKLTVDKSRWQQGNVFSCSVMHEALHNHYTQKSLSLSPG
With B1, the Kd came to 0.528 µM.
